Where two headings read alike, the source gives them in different places.

Experiment [1] concerns the target T1, human EGFR-His-tagged fusion protein (human, UniProt P00533 25-645).
T1 construct: extracellular domain; bought; also called human EGFR protein; human EGFR-His protein

Experiment [2] deals with T1, human EGFR-His-tagged fusion protein. The source holds these as a separate data set.
For another experiment, the target named is T2, pepvIII polypeptide (human).
T2 construct: synthetic peptide (GL Biochem); also called Leu25-His37 polypeptide
T2 peptide: LEEKKGNYVVTDH

The target of experiment [3] is T1, human EGFR-His-tagged fusion protein. This is another data set of the same source.
Experiment [4] shares this target. The source holds these as a separate data set.
Experiment [5] shares this target. The source holds these as a separate data set.
For experiment [6] the target is unchanged. This is another data set of the same source.
For experiment [7] the target is unchanged. The source holds these as a separate data set.
Experiment [8] shares this target. The source holds these as a separate data set.
In experiment [9] the target is T3, murine EGFR protein (murine, UniProt Q01279 25-647).
T3 construct: Bought protein

The target in experiment [10] is T3, murine EGFR protein. The source holds these as a separate data set.
Experiment [11] addresses T4, human EGFRvIII-His tag protein (extracellular domain Leu25-Ser378) (human, UniProt P00533 298-645).
T4 construct: Made in HEK293E cells, purified on nickel column; also called human EGFRvIII protein; EGFRvIII protein; not shown: His tag

Experiment [12] has as its target T4, human EGFRvIII-His tag protein …. The source holds these as a separate data set.
Experiment [13] has the same target. This is another data set of the same source.
For experiment [14], the target named is T3, murine EGFR protein. The source holds these as a separate data set.
The target of experiment [15] is T3, murine EGFR protein. This is another data set of the same source.
Experiment [16] has as its target T4, human EGFRvIII-His tag protein …. The source holds these as a separate data set.
Experiment [17] shares this target. This is another data set of the same source.
The target is the same in experiment [18]. The source holds these as a separate data set.
For experiment [19], the target named is T3, murine EGFR protein. This is another data set of the same source.
In experiment [20] the target is T3, murine EGFR protein. This is another data set of the same source.
Experiment [21] has as its target T4, human EGFRvIII-His tag protein …. This is another data set of the same source.
Experiment [22] has as its target T3, murine EGFR protein. This is another data set of the same source.
Experiment [23] deals with T4, human EGFRvIII-His tag protein …. This is another data set of the same source.
In experiment [24] the target is T3, murine EGFR protein. This is another data set of the same source.
In experiment [25] the target is T5, cynomolgus monkey EGFR on HEK293T-monkey EGFR cells (cynomolgus monkey, UniProt P55245 25-1210 (rhesus entry)). Kind of experiment: FACS, HEK293T-monkey EGFR cells (specificity assay).
Experiment [26] has as its target T6, monkey EGFR protein (commercial, SB, catalog number 90285-C08H) (monkey).
T6 construct: Bought protein used to coat ELISA plates
Kind of experiment: ELISA, coated monkey EGFR protein, antibody 0.001 nM.

Experiment [27] deals with T6, monkey EGFR protein (commercial, SB, …). Kind of experiment: ELISA, coated monkey EGFR protein, antibody 0 nM (blank).
Experiment [28] shares this target. Kind of experiment: ELISA, coated monkey EGFR protein, antibody 0.0001 nM.
Experiment [29] has the same target. Kind of experiment: ELISA, coated monkey EGFR protein, antibody 0.1 nM.
The target is the same in experiment [30]. Kind of experiment: ELISA, coated monkey EGFR protein, antibody 1 nM.
Experiment [31] shares this target. Kind of experiment: ELISA, coated monkey EGFR protein, antibody 0.01 nM.
The target is the same in experiment [32]. Kind of experiment: ELISA, coated monkey EGFR protein, antibody 10 nM.
Experiment [33] concerns the target T5, cynomolgus monkey EGFR on …. Kind of experiment: FACS, HEK293T-monkey EGFR cells.
In experiment [34] the target is T6, monkey EGFR protein (commercial, SB, …). Kind of experiment: ELISA, coated monkey EGFR protein, antibody 100 nM.
Experiment [35] addresses T7, human EGFRvIII-His tag protein (human, UniProt P00533 298-645).
T7 construct: Made in HEK293E, purified on nickel column; also called human EGFRvIII protein; not shown: His tag

In experiment [36] the target is T8, murine EGFR protein (murine, UniProt Q01279 25-647).
T8 construct: Bought protein
The source holds these as a separate data set.

In a further experiment the target is T9, monkey EGFR protein (cynomolgus monkey, UniProt P55245 25-645 (rhesus entry)).
T9 construct: Bought protein (SB 90285-C08H); also called cynomolgus monkey EGFR

A further experiment addresses T10, human EGFR protein (human, UniProt P00533 25-645).
T10 construct: also called human EGFR-His; human EGFR-ECD protein; not shown: His tag

B1: 30D8-hIgG1 (antibody, V domains shown)
VH: EVQLVESGGGLVKPGGSLRLSCEASGFTFSDAWMSWVRQAPGKGLEWVGRIKSKTDGGTTDYVVPLNGRFIISRDDSRNTLYLQLNNLKTEDTAVYYCTTVPGSYGYWGQGTLVTVSS
VL: DIVMTQSPLSLPVTPGEPASISCRSSQSLLHNKRNNYLDWFLQKPGQSPQLLIYLASNRASGVPDRFSGGGSGTDFTLKISRVEAEDVGVYYCMQAQQTPITFGQGTRLEIK
Regarding B1, the OD450 in experiment [1] turned out to be 0.09; in experiment [2], 0.05; in [3], 0.05; in experiment [4], 0.05; in experiment [5] it was 0.05; in [6] it was 0.06. Besides, the results for the OD450 in experiment [7] and in experiment [8] were 0.05 and 0.07, respectively. For the same molecule, the binding result with pepvIII polypeptide is listed as “binds”.

B2: 30D8-hIgG1 (antibody, V domains shown)
VH: EVQLVESGGGLVKPGGSLRLSCEASGFTFSDAWMSWVRQAPGKGLEWVGRIKSKTDGGTTDYVVPLNGRFIISRDDSRNTLYLQLNNLKTEDTAVYYCTTVPGSYGYWGQGTLVTVSS
VL: DIVMTQSPLSLPVTPGEPASISCRSSQSLLHNKRNNYLDWFLQKPGQSPQLLIYLASNRASGVPDRFSGGGSGTDFTLKISRVEAEDVGVYYCMQAQQTPITFGQGTRLEIK
notes: Variable regions cloned with human IgG1 heavy chain constant region and human light chain constant region
As to B2, the OD450 in the experiment with murine EGFR protein [9] was found to be 0.06; with murine EGFR protein [10] it was 0.06; in experiment [11], 0.69; in experiment [12] it was 2.52; in [13], 2.25; with murine EGFR protein [14], 0.06. The OD450 with murine EGFR protein [15] turned out to be 0.06; in [16], 2.61; in experiment [17], 0.15; in experiment [18], 1.89; with murine EGFR protein [19], 0.1; with murine EGFR protein [20], 0.06. Besides, the OD450 in [21] was 0.07; with murine EGFR protein [22], 0.06; in experiment [23], 0.07; with murine EGFR protein [24], 0.06.

B3: 30D8-hIgG1 (antibody, V domains shown)
VH: EVQLVESGGGLVKPGGSLRLSCEASGFTFSDAWMSWVRQAPGKGLEWVGRIKSKTDGGTTDYVVPLNGRFIISRDDSRNTLYLQLNNLKTEDTAVYYCTTVPGSYGYWGQGTLVTVSS
VL: DIVMTQSPLSLPVTPGEPASISCRSSQSLLHNKRNNYLDWFLQKPGQSPQLLIYLASNRASGVPDRFSGGGSGTDFTLKISRVEAEDVGVYYCMQAQQTPITFGQGTRLEIK
notes: Anti-EGFRvIII control
Turning to B3, in experiment [25], the Max_MFI came out at 314. Further, the OD450 was found to be 0.06 in experiment [26]; 0.06 in [27]; 0.05 in experiment [28]; 0.06 in [29]; 0.06 in experiment [30]; 0.06 in experiment [31]. The results for the OD450 in experiment [32] and in experiment [34] were 0.08 and 0.19, respectively. Further, in [33], the “Max MFI” value was found to be 77. Besides, the binding result in experiment [33] is “no binding”.

B4: 30D8-hIgG1 (antibody, V domains shown)
VH: EVQLVESGGGLVKPGGSLRLSCEASGFTFSDAWMSWVRQAPGKGLEWVGRIKSKTDGGTTDYVVPLNGRFIISRDDSRNTLYLQLNNLKTEDTAVYYCTTVPGSYGYWGQGTLVTVSS
VL: DIVMTQSPLSLPVTPGEPASISCRSSQSLLHNKRNNYLDWFLQKPGQSPQLLIYLASNRASGVPDRFSGGGSGTDFTLKISRVEAEDVGVYYCMQAQQTPITFGQGTRLEIK
notes: anti-EGFRvIII control
As for B4, in [35], the Kd came out at 11.7 nM, the koff came to 0.00229 s⁻¹ and the on-rate (kon) worked out at 197000 M⁻¹ s⁻¹. For the same molecule, the binding result in the experiment with murine EGFR protein [36] was “no binding (tested: 200 nM (highest antigen concentration))”. Also, in the experiment with monkey EGFR protein, the binding result is reported as “no binding (tested: 200 nM (highest antigen concentration))”. Moreover, the binding result with human EGFR protein is listed as “no binding (tested: 30 µg/mL (highest EGFR concentration))”.

The record behind these values is patent US20240101686A1 (SIMCERE ZAIMING PHARMACEUTICAL, published 2024).
